Key:
purified p56-RB [1] = biological target: T1, purified p56-RB (Homo sapiens (Human), UniProt P06400); test: blot of purified MBP fusion proteins probed with the Rb-sandwich
T1 sequence: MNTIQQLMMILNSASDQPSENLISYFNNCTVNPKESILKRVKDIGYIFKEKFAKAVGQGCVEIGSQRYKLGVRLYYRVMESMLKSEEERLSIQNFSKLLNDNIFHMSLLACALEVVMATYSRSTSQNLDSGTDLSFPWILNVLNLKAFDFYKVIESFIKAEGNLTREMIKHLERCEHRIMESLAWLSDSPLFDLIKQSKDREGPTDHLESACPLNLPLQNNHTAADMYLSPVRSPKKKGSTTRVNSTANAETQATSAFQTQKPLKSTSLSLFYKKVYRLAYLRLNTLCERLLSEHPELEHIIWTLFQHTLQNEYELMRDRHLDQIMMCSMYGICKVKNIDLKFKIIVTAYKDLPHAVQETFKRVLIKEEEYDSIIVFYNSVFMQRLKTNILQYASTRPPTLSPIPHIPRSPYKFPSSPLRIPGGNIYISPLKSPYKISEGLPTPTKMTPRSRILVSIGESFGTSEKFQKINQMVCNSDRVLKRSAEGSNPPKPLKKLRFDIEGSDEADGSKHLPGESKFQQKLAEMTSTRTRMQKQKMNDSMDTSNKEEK

purified p56-RB [2] = biological target: T1, purified p56-RB; test: blot of purified MBP fusion proteins probed with the Rb-sandwich; the faint band in lane 3 is called an artifact in paragraph 24
From the text: (§1) (A) Two identical blots containing seven purified MBP fusion proteins were probed with either the "Rb-sandwich" (lanes 1–7) or with an antibody to MBP (New England Biolabs) (lanes 8–14). […] (B) Similarly, two identical blots of the purified GST-fusion proteins were probed with either the "Rb-sandwich" (lanes 15–17) or with an antibody to GST (lanes 18–20). […] (C) A diagram of the different constructs used in this experiment. […] (D) Sequence comparison of the Rb-binding region of mitosin with the Rb-binding domain of E2F-1 (in bold letters) and neighboring residues (SEQ. ID NOS: 3 and 4). […] Dashed lines indicate conserved residues and solid lines indicate identical residues.

purified p56-RB [3] = biological target: T1, purified p56-RB; test: blot of purified GST fusion proteins probed with the Rb-sandwich (figure legend)
From the text: as §1

B1: MBP-10 (other)
chain: LLQGLDEAKNNYIVLQSSVNGLIQEVEDGKQKLEKKDEEISRLKNQIQDQEQLVSKLSQVEGEHQLWKEQNLELRNLTVELEQKIQVLQSKNASLQDTLEVLQSSYKNLENELELTKMDKMSFVEKVNKMTAKETELQREMHEMAQKTAELQEELSGEKNRLAGELQLLLEEIKSSKDQLKELTLENSELKKSLDCMHKDQVEKEGKVREEIAEYQLRLHEAEKKHQALLLDTNKQYEVEIQTYREKLTSKEECLSSQKLEIDLLKSSKEELNNSLKATTQILEELKKTKMDNLKYVNQLKKENERAQGKMKLLIKSCKQLEEEKEILQKELSQLQAAQEKQKTGTVMDTKVDELTTEIKELKETLEEKTKEADEYLDKYCSLLISHEKLEKAKEMLETQVAHLCSQQSKQDSRGSPLLGPVVPGPSPIPSVTEKRLSSGQNKASGKRQRSSGIWENGGGPTPATPESFSKKSKKAVMSGIHPAEDTEGTEFEPEGLPEVVKKGFADIPTGKTSPYILRRTTMATRTSPRLAAQKLALSPLSLGKENLAESSKPTAGGSRSQKVKVAQRSPVDSGTILREPTTKSVPVNNLPERSPTDSPREGLRVKRGRLVPSPKAGLESKGSENCKVQ
**Q.** Does B1 bind (purified p56-RB [1])?
**A.** Result: binds

B2: MBP-10/KN (other)
chain: LAGELQLLLEEIKSSKDQLKELTLENSELKKSLDCMHKDQVEKEGKVREEIAEYQLRLHEAEKKHQALLLDTNKQYEVEIQTYREKLTSKEECLSSQKLEIDLLKSSKEELNNSLKATTQILEELKKTKMDNLKYVNQLKKENERAQGKMKLLIKSCKQLEEEKEILQKELSQLQAAQEKQKTGTVMDTKVDELTTEIKELKETLEEKTKEADEYLDKYCSLLISHEKLEKAKEMLETQVAHLCSQQSKQDSRGSPLLGPVVPGPSPIPSVTEKRLSSGQNKASGKRQRSSGIWENGGGPTPATPESFSKKSKKAVMSGIHPAEDTEGTEFEPEGLPEVVKKGFADIPTGKTSPYILRRTTMATRTSPRLAAQKLALSPLSLGKENLAESSKPTAGGSRSQKVKVAQRSPVDSGTILREPTTKSVPVNNLPERSPTDSPREGLRVKRGRLVPSPKAGLESKGSENCKVQ
**Q.** Does B2 bind (purified p56-RB [1])?
**A.** Result: binds

B3: MBP-10/H (other)
chain: LLQGLDEAKNNYIVLQSSVNGLIQEVEDGKQKLEKKDEEISRLKNQIQDQEQLVSKLSQVEGEHQLWKEQNLELRNLTVELEQKIQVLQSKNASLQDTLEVLQSSYKNLENELELTKMDKMSFVEKVNKMTAKETELQREMHEMAQKTAELQEELSGEKNRLAGELQLLLEEIKSSKDQLKELTLENSELKKSLDCMHKDQVEKEGKVREEIAEYQLRLHEAEKKHQALLLDTNKQYEVEIQTYREKLTSKEECLSSQKLEIDLLKSSKEELNNSLKATTQILEELKKTKMDNLKYVNQLKKENERAQGKMKLLIKSCKQLEEEKEILQKELSQLQAAQEKQKTGTVMDTKVDELTTEIKELKETLEEKTKEADEYLDKYCSLLISHEKLEKAKEMLETQVAHLCSQQSKQDSRGSPLLGPVVPGPSPIPSVTEKRLSSGQNKA
**Q.** Does B3 bind (purified p56-RB [2])?
**A.** Result: no binding

B4: MBP-10/NB (other)
chain: LLQGLDEAKNNYIVLQSSVNGLIQEVEDGKQKLEKKDEEISRLKNQIQDQEQLVSKLSQVEGEHQLWKEQNLELRNLTVELEQKIQVLQSKNASLQDTLEVLQSSYKNLENELELTKMDKMSFVEKVNKMTAKETELQREMHEMAQKTAELQEELSGEKNRLAGELQLLLEEIKSSKDQLKELTLENSE
**Q.** Does B4 bind (purified p56-RB [1])?
**A.** Result: no binding

B5: MBP-10/NI (other)
chain: LGPVVPGPSPIPSVTEKRLSSGQNKASGKRQRSSGIWENGGGPTPATPESFSKKSKKAVMSGIHPAEDTEGTEFEPEGLPEVVKKGFADIPTGKTSPYILRRTTMATRTSPRLAAQKLALSPLSLGKENLAESSKPTAGGSRSQKVKVAQRSPVDSGTILREPTTKSVPVNNLPERSPTDSPREGLRVKRGRLVPSPKAGLESKGSENCKVQ
**Q.** Does B5 bind (purified p56-RB [1])?
**A.** Result: binds

B6: MBP-T antigen (other)
chain: MDKVLNREESLQLMDLLGLERSAWGNIPLMRKAYLKKCKEFHPDKGGDEEKMKKMNTLYKKMEDGVKYAHQPDFGGFWDATEIPTYGTDEWEQWWNAFNEENLFCSEEMPSSDDEATADSQHSTPPKKKRKVEDPKDFPSELLSFLSHAVFSNRTLACFAIYTTKEKAALLYKKIMEKYSVTFISRHNSYNHNILFFLTPHRHRVSAINNYAQKLCTFSFLICKGVNKEYLMYSALTRDPFSVIEESLPGGLKEHDFNPEEAEETKQVSWKLVTEYAMETKCDDVLLLLGMYLEFQYSFE
**Q.** Does B6 bind (purified p56-RB [1])?
**A.** Result: binds

B7: GST-1045 (other)
chain: MSGIHPAEDTEGTEFEPEGLPEVVKKGFADIPTGKTSPYILRRTTM
**Q.** Does B7 bind (purified p56-RB [3])?
**A.** Result: binds

— patent US5710022, “Nuclear mitotic phosphoprotein” (Board of Regents of the University of Texas System, dated 1998)
